Laboratory results taken from patent US20100209400A1, “TAK1-Mediated Regulation of Osteogenesis” (priority 2003, published 2010).

Assays:
SMAD proteins = assay: Co-immunoprecipitation of TAK1 variants with SMADs from HEK293T cells; assay type: binding; conditions: SMAD7, R-SMADs 1-3, 5, SMAD4
Procedure: Co-immunoprecipitation were conducted as described (Verschueren K et al, J. Biol. Chem, 274: 20489-20498, 1999). Human embryonic kidney (HEK) 293T cells were plated at 3×10^6 cells/petri dish (55 square centimeters (cm^2)) one day prior to transfection. For transient transfections, 1 μg of Flag-tagged expression plasmid and 2 μg of Myc- or HA-tagged expression plasmids were utilized. DNA content was normalized with empty vector. Transfections were performed with FuGENE6 (Roche, Mannheim). Roughly 36 hours post-transfection cells were dislodged from dishes and harvested by centrifugation. Pellets were shock frozen in liquid nitrogen. […] reactions were performed in lysis buffer. Cell extracts and immunoprecipitates were analyzed by SDS-PAGE and Western blot analysis using the appropriate antibodies.
Toward this end, co-immunoprecipitation with various combinations of wild-type TAK1 (TAK1wt) and R-SMADs, either in a latent form or post-activation by constitutively active BMP type I receptor (ALK6ca, BMPR-IB) or activin type I receptor ALK4ca (ActR-IB), I-SMADs and SMAD4, were conducted. […] TAK1 interaction with R-SMADs was typically stronger in the absence of constitutively active receptors (the exception being SMAD3), which may reflect a reduced affinity for activated, i.e. phosphorylated R-SMADs by TAK1, except with SMAD3.
SMAD proteins only bind TAK1 with an intact or a constitutively active kinase domain. Different TAK1 variants such as TAK1wt, TAK1ca, TAK1dn and two deletions, TAKDN (lacking amino acids 1-300; FIG. 1a) and TAKDC (lacking 301-606; FIG. 1a), respectively, were tested for their ability to bind to R-SMADs (using SMAD1 as a representative) or I-SMAD6 and I-SMAD7.

[1] = test system: nucleo-cytoplasmic shuttling of SMAD1 and SMAD3; assay: Immunofluorescence of Flag-tagged SMAD1 and SMAD3 localisation in HEK293T cells; assay type: cell-based, human; conditions: Flag-tagged SMADs
Procedure: HEK293T cells were seeded at 2×10^5 cells/well into poly-D-lysine coated 6-well plates one day prior to transfection. Transient transfections were conducted with Fugene 6. After 30 hours, the cells were fixed with 4% paraformaldehyde in phosphate buffered saline (PBS) for 10 minutes, washed twice with PBS, and permeabilized with methanol followed by 0.5% Triton-X 100 in PBS. After washing with 0.1% Triton-X 100 in PBS (PBT), blocking was performed with 5% FCS in PBT for 1 hour at room temperature. Following another PBT wash, tagged proteins were incubated with the appropriate primary antibodies. Detection was accomplished via goat anti mouse-Alexa 488 (A-11001, Molecular Probes) (5 μg/ml) antibody for murine primary antibodies.
To determine whether TAK1-dependent interference with SMAD activity affected subcellular distribution of SMAD, immunofluorescence was used to localize flag-tagged SMAD1 or SMAD3 expressed in HEK293T cells in the absence or presence of constitutively active receptors (FIG. 7).

C3H10T½-BMP2 cells [2] = assay: Histological analysis and alkaline phosphatase staining of C3H10T½-BMP2 cells; assay type: cell-based, murine
Procedure: Murine C3H10T½ progenitor cells were cultured in high-glucose DMEM containing 10% fetal calf serum, as described (Ahrens Met al, DNA Cell Biol, 12: 871-880, 1993). Cells were stably transfected with expression plasmids encoding wt TAK1, dominant-negative (dn) or constitutively active (ca) TAK1 in pMT7T3-f1 using DOSPER™ according to the manufacturer's protocol (Roche, Mannheim) and a selection plasmid conferring puromycin resistance (pBSpacDp: parental C3H10T½ cells) or G418-resistance (pAG60: BMP2-expressing C3H10T½ cells). Individual clones were picked, propagated, and tested for recombinant expression of TAK1-variants by RT-PCR using a vector-specific and a gene-specific primer. Control cell lines (empty to expression vector) were established at the same time. Cells were plated at a density of 5,000 cells/cm^2. After reaching confluence (arbitrarily termed day 0) ascorbic acid (50 microgram/milliliter (μg/ml)) and b-glycerophosphate (10 millimolar (mM)) were added.
Proteoglycan-secreting chondrocytes were identified by staining with Alcian Blue at pH 2.5 (Alcian Blue 8GS, Roth, Karlsruhe).
Osteoblast formation was evaluated as a measure of TAK1 influence on osteo-/chondrogenic differentiation potential. C3H10T½-BMP2 cells co-expressing TAK1 and its molecular variants were assessed histologically for alkaline phosphatase (ALP) activity (FIG. 8C), which is indicative of osteoblast differentiation.

C3H10T½-BMP2 cells [3] = assay: FACS for apoptosis and cell cycle progression; assay type: cell-based, murine; conditions: CDDP 25 μM; etoposide 10 μM; TAK1 variants stably co-expressed
Procedure: Exponentially growing cells were harvested 48 hours post-seeding or at different stages at and after confluence by trypsinization and fixation with 80% methanol. Cellular DNA content was determined by staining cells with RNAseS/propidium iodide, and measuring fluorescence in a Becton Dickinson FACScan. For each cell population, 10,000 cells were analyzed, and the proportions in G0/G1, G2/M and S-phases were estimated by using Modfit cell cycle analysis software. Information on cell size (e.g. due to differentiation) and complexity could be obtained from forward and side scatter data following evaluation of relevant cell populations.
To determine whether TAK1-mediated effects in the assay systems above resulted from apoptosis, C3H10T½-BMP2 cells co-expressing TAK1 variants were assayed by FACS for apoptosis and cell cycle progression.

B1: TAK1dn: dominant-negative TAK1 mutant (K63W), kinase inactive (protein)
chain: MSTASAASSSSSSSASEMIEAPSQVLNFEEIDYKEIEVEEVVGRGAFGVVCKAKWRAKDVAIWQIESESERKAFIVELRQLSRVNHPNIVKLYGACLNPVCLVMEYAEGGSLYNVLHGAEPLPYYTAAHAMSWCLQCSQGVAYLHSMQPKALIHRDLKPPNLLLVAGGTVLKICDFGTACDIQTHMTNNKGSAAWMAPEVFEGSNYSEKCDVFSWGIILWEVITRRKPFDEIGGPAFRIMWAVHNGTRPPLIKNLPKPIESLMTRCWSKDPSQRPSMEEIVKIMTHLMRYFPGADEPLQYPCQYSDEGQSNSATSTGSFMDIASTNTSNKSDTNMEQVPATNDTIKRLESKLLKNQAKQQSESGRLSLGASRGSSVESLPPTSEGKRMSADMSEIEARIVATAGNGQPRRRSIQDLTVTGTEPGQVSSRSSSPSVRMITTSGPTSEKPARSHPWTPDDSTDTNGSDNSIPMAYLTLDHQLQPLAPCPNSKESMAVFEQHCKMAQEYMKVQTEIALLLQRKQELVAELDQDEKDQQNTSRLVQEHKKLLDENKSLSTYYQQCKKQLEVIRSQQQKRQGTS
modifications: left off: small tags and cut ends
binding of TAK1 variant to SMAD proteins (co-immunoprecipitation) (SMAD proteins): blocked binding
subcellular localisation of SMAD1 and SMAD3 [1]: predominantly in the nucleus
growth phenotype of C3H10T½-BMP2 cells expressing the TAK1 variant (C3H10T½-BMP2 cells [2]; after confluence): Multiple layer growth
osteoblast-like cell formation / ALP activity (C3H10T½-BMP2 cells [2]; compared to C3H10T½-BMP2 cells, 10 days post-confluence): enhanced ALP activity
apoptosis (subG0-G1 peak) (C3H10T½-BMP2 cells [3]): did not induce apoptosis
